Test results taken from patent US20030087827A1 (BOARD OF SUPERVISORS OF LOUISIANA STATE UNIVERSITY AND …, published 2003).
Where two headings read alike, the source gives them in different places. Non-standard residues stand in square brackets, D forms with d. No end group written: not given here.

T1: proprotein convertase PC2
T1 sequence (P16519 110-638, species assumed, looked up): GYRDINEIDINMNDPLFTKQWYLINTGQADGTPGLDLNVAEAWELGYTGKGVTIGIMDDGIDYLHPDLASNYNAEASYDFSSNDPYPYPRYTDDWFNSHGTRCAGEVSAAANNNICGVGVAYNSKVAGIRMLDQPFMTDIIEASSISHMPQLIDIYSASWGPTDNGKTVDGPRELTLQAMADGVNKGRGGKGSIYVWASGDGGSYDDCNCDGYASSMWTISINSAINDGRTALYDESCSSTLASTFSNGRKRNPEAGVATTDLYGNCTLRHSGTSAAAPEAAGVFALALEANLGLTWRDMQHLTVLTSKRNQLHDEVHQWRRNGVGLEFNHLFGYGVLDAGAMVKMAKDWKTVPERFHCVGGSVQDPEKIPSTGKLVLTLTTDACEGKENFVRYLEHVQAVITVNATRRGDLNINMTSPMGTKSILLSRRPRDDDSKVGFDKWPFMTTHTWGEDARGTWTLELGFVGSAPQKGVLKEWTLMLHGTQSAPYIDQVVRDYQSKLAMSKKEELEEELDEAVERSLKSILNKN

T2: proprotein convertase PACE4
T2 construct: Partially purified preparation
T2 sequence (P29122 150-969, species assumed, looked up): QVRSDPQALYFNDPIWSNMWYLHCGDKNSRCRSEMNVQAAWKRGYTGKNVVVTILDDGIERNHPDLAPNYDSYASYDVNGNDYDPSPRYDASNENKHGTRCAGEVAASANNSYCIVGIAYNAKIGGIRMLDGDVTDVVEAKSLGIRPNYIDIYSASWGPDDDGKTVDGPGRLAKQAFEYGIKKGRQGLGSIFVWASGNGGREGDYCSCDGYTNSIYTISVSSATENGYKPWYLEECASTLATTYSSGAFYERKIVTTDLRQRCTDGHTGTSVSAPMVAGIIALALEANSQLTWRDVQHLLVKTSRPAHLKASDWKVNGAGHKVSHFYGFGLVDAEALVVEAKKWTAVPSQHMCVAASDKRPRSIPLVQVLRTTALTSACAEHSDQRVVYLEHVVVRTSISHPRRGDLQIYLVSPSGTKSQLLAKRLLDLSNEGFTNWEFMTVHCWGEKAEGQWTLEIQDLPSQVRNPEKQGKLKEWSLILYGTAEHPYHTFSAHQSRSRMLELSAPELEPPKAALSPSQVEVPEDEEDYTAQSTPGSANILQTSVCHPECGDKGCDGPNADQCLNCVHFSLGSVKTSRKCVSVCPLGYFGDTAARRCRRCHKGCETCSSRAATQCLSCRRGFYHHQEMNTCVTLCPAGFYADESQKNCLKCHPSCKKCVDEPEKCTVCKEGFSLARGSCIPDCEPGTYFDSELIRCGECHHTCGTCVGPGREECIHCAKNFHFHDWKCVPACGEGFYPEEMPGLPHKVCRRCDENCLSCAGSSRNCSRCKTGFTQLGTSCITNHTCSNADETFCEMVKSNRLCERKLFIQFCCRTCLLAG


Columns and labels:
[1] = molecular target: T3, recombinant truncated mouse furin (mouse, UniProt P23188 108-714, N-glycosylated at two of three potential sites); assay: enzyme inhibition, pERTKR-MCA hydrolysis (fluorescence), competitive Ki
T3 construct: extracellular domain; Purified by ion exchange and gel permeation; also called recombinant furin; recombinant mouse furin
T3 sequence (P23188 108-714): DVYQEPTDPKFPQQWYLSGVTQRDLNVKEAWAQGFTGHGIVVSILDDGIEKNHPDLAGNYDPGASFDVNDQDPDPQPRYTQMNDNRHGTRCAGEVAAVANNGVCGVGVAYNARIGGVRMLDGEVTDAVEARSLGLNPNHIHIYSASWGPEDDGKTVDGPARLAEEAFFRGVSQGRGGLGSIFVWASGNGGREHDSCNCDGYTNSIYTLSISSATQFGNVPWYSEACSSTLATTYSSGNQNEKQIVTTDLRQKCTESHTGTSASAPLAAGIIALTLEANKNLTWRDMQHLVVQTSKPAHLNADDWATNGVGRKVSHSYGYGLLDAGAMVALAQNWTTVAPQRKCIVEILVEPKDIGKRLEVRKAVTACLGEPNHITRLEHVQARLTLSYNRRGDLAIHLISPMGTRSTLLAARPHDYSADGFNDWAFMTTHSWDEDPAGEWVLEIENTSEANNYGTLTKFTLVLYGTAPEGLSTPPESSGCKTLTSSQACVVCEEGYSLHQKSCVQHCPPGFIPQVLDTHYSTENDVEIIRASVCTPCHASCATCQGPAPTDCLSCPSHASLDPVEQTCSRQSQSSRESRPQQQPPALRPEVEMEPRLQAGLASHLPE
Text: (§1) Each value represents the mean ± S.D. determined from three independent experiments.

[2] = molecular target: T1, proprotein convertase PC2; assay: as above
Text: as §1

[3] = molecular target: T4, proprotein convertase PC1; assay: enzyme inhibition, pERTKR-MCA hydrolysis, ratio of Ki
T4 construct: also called PC3
T4 sequence (P63239 111-753): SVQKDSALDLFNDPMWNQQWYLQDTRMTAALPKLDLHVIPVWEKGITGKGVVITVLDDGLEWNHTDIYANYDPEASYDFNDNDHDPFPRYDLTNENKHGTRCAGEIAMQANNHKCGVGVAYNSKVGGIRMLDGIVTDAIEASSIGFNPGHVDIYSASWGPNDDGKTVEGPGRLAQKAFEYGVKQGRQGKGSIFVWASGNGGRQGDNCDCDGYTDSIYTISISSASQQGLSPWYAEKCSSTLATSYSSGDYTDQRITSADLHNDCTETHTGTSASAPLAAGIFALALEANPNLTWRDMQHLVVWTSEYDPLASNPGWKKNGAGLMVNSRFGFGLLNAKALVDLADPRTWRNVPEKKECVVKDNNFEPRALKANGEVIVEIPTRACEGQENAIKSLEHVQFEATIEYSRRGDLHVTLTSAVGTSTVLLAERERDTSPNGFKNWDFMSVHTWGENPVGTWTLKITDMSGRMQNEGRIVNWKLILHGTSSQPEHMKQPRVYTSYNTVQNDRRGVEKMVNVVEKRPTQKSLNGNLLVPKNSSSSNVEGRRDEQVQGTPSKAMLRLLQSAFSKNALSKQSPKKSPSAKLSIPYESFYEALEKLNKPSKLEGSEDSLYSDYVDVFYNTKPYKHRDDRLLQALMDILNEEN

[4] = molecular target: T3, recombinant truncated mouse furin; assay: enzyme inhibition, pERTKR-MCA hydrolysis (fluorescence), competitive Ki; remark: listed apart in the source
Text: (§2) Inhibition of Furin, PACE4, PC1 and PC2 by Different L-Polyarginine Peptides.
as §1

[5] = molecular target: T4, proprotein convertase PC1; assay: as above
Text: as §2, §1

[6] = molecular target: T2, proprotein convertase PACE4; assay: as above
Text: as §2, §1

[7] = molecular target: T3, recombinant truncated mouse furin; assay: enzyme inhibition, pERTKR-MCA hydrolysis, ratio of Ki
[8] = molecular target: T3, recombinant truncated mouse furin; assay: enzyme inhibition, pERTKR-MCA hydrolysis (fluorescence), competitive Ki; remark: listed apart in the source
Text: (§3) The Effect of N-Terminal Acetyl and C-Terminal Amide Groups on Inhibition. We also examined the effect of the terminal acetyl and amide modifications on inhibitory potency.
as §1

[9] = molecular target: T1, proprotein convertase PC2; assay: as above; remark: listed apart in the source
Text: as §3, §1

[10] = molecular target: T2, proprotein convertase PACE4; assay: enzyme inhibition, pERTKR-MCA hydrolysis, ratio of Ki
[11] = molecular target: T1, proprotein convertase PC2; assay: as above

Row | Binder | Ki [1] | Ki [2] | Ki [4] | Ki [5] | Ki [6] | further results
1 | Ac-RRKRRR-NH2 [Ac-RRKRRR-NH2] | 1.3 µM | 461 µM | – | – | – | –
2 | Ac-RHKRRR-NH2 (L-hexapeptide) [Ac-RHKRRR-NH2] | 3.4 µM | 152 µM | – | – | – | –
3 | Ac-KHKRRR-NH2 (L-hexapeptide) [Ac-KHKRRR-NH2] | 5.2 µM | 280 µM | – | – | – | –
4 | Ac-HHKRRR-NH2 (L-hexapeptide) [Ac-HHKRRR-NH2] | 13.2 µM | 235 µM | – | – | – | –
5 | Ac-MHKRRR-NH2 (L-hexapeptide) [Ac-MHKRRR-NH2] | 10.3 µM | 216 µM | – | – | – | –
6 | [dR][dR][dR][dR][dR][dR] (also called D6R; D-hexa-arginine) [Hexa-D-arginine] | – | – | 0.106 µM | 13 µM | 0.58 µM | fold increase in Ki against hexa-L-arginine [3]: 3 fold
7 | H-RRRRRR-OH (no terminal modifications; also called hexamer) [Hexa-L-arginine] | – | – | 0.114 µM | 3.9 µM | 0.52 µM | –
8 | Ac-HRKRRR-NH2 (L-hexapeptide) [Ac-HRKRRR-NH2] | 2.1 µM | 309 µM | – | – | – | –
9 | Ac-MRKRRR-NH2 (L-hexapeptide) [Ac-MRKRRR-NH2] | 2.3 µM | – | – | – | – | –
10 | Ac-KRKRRR-NH2 (L-hexapeptide) [Ac-KRKRRR-NH2] | 1.6 µM | 391 µM | – | – | – | –
11 | H-LLRVKR-OH (L-hexapeptide without terminal groups; also called unmodified LLRVKR) | – | – | – | – | – | fold increase in inhibitory potency against the amidated and acetylated peptide Ac-LLRVKR-NH2 [7]: 8 fold; Ki [8]: 0.42 µM; Ki [9]: 3.7 µM
12 | Ac-LLRVKR-OH (L-hexapeptide, free C-terminus) [Ac-LLRVKR] | – | – | – | – | – | Ki [8]: 3.5 µM; Ki [9]: 1.3 µM
13 | H-LLRVKR-NH2 (L-hexapeptide, free N-terminus) [LLRVKR-NH2] | – | – | – | – | – | Ki [8]: 0.8 µM; Ki [9]: 2.3 µM
14 | H-RRRR-OH (no terminal modifications; also called tetramer) [Tetra-L-arginine] | – | – | 6.4 µM | > 200 µM | > 200 µM | fold increase in Ki against the pentamer (penta-L-arginine) [7]: ~5 fold
15 | RRRRRRR (no terminal modifications; also called heptamer) [Hepta-L-arginine] | – | – | 0.068 µM | 5.2 µM | 0.24 µM | –
16 | RRRRR (no terminal modifications; also called pentamer; pentameric polyarginine) [Penta-L-arginine] | – | – | 0.99 µM | 14 µM | 0.98 µM | fold increase in Ki against the hexamer (hexa-L-arginine) [7]: ~10 fold; ratio of Ki to that of the hexamer (SEQ ID NO 14) [10]: ~2 fold
17 | Ac-LLRVKR-NH2 (L-hexapeptide; also called acetylated and amidated LLRVKR) [Ac-LLRVKR-NH2] | – | – | – | – | – | fold smaller Ki than the unmodified peptide LLRVKR [11]: ~4 fold; Ki [8]: 3.4 µM; Ki [9]: 1 µM
18 | RRRRRRRR (no terminal modifications; also called octamer) [Octa-L-arginine] | – | – | 0.061 µM | 5.1 µM | 0.15 µM | –
19 | RRRRRRRRR (no terminal modifications; also called nonamer) [Nona-L-arginine] | – | – | 0.042 µM | 12 µM | 0.11 µM | –
